± gives the uncertainty stated by the source.

This data set in a line: amyloid nucleation score (Sup35N fusion, yeast selection) (log enrichment); library NNK2; higher = more nucleation; inactive = no reads after selection. In outline:
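Random libraries were run with three technical output replicates. In each, psi-negative yeast expressing Sup35N fused to peptides of 20 random codons were induced 24 hours with 100 μM copper sulfate and grown 7 days at 30°C on medium lacking adenine and uracil, and input and output plasmid inserts were Illumina-sequenced. The nucleation score is the DiMSum log enrichment of output over input reads, centred on the mode score of non-aggregating sequences, and sequences under 100 input reads were excluded.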
As for YVDGFYNGERWRLVLHVWDL, the amyloid nucleation score is -0.598 ± 0.39.
The substance RLFLSSNST had an amyloid nucleation score of -1.49 ± 0.54.
For SYTWFSYIWYSLVFLRD the value was -0.088 ± 0.8; for DSFFAEMDNLNSGRTPFKGT, “inactive”.
Under MLPFNRSVPNAAFFIGMIGS stands 2.16 ± 0.076.
The substance LWVVQTVDHTSKSSSVWSSL returned an amyloid nucleation score of 4.16 ± 0.078.
Under RSDVTLDNIQMWA stands -1.38 ± 0.64; under PLWCSAGALLYWYKYPWFWL, -0.332 ± 0.63.
In turn, MKCDIFGGLSDN gave an amyloid nucleation score of 0.698 ± 0.62.
Under CMSNTMCAFVDGYNMHYLVD stands “inactive”; under MSRIRTTTMNSGFGGYTPVL, 3.06 ± 0.056.
For ISYHSVWDKLFFYVVDFYTS the value was -0.591 ± 1; for YSRGMGVSNEMRDYFNKRDI, “inactive”; for YSYPRS, “inactive”.
For SILYVSRLTFR the value was 0.218 ± 1.1.
Substance SLFLARRASTIARLFKRVYM yielded an amyloid nucleation score of 0.127 ± 0.63.
For KSAYIGASNHAEIRHQSLSS the value was 0.253 ± 0.24; for VYMPYHLSYMLEPRQNSVLS, -0.744 ± 1.1; for SHSSMVLRLVRVWCVCRG, 0.342 ± 0.4.
As for RRISLLFTYYVRQSLSCLIV, the amyloid nucleation score came out at 4.94 ± 0.086.
Under VLCRRHSN stands 1.41 ± 0.38; under VYFLMLDY, -0.526 ± 0.49.
Under YIPKLLRCGRGCHYILSYAD stands 0.065 ± 0.62; under RYRSFICALLRGFTDLACL, -1.53 ± 1.1.
Regarding GRMQTKTILKNIECNNDSLM, the amyloid nucleation score was found to be 2.39 ± 0.057.
For SYHAYRG the value was -0.064 ± 0.37; for STGCSYHFRMIHATVTTYFG, 3.59 ± 0.053.
Under AYDRIY stands 0.367 ± 0.74; under RTDMALALQ, 0.973 ± 0.34.
With HVRMK, the amyloid nucleation score was found to be 4.79 ± 0.1.
Under RLWTCLEVLKFSGGLIASMY stands -1.05 ± 0.44; under GMIGNTIGNECTIYLNDQYV, 0.825 ± 0.34.
Under YCFRS stands -0.542 ± 0.64; under GNQRFVFVLRMGTVGPLHMF, 0.836 ± 0.55.
Under FRSFRRIILSFYEVNFGSII stands “inactive”; under HVLEVPPAYPTQTSGMNPNS, -0.143 ± 0.76.
The substance YMVCLRSGSIPVIDLPWYSL came in with an amyloid nucleation score of -0.12 ± 1.
Under HDKVCTSLRVVDQCLRPGH stands 0.608 ± 0.38.
Under GAMDLHQWASMMNMFPAMCV stands 0.731 ± 0.47; under MCSMCIVLPPVCVLKAKVYT, 3.69 ± 0.081; under WISTTYASLDNPSHKGIVLM, -0.302 ± 0.48.
Substance LVLPYSGTHAGLRVWCGSSV registered an amyloid nucleation score of 0.696 ± 0.34.
Under RLFTRANCIHFRERKVRKIH stands 0.078 ± 0.29; under IDQCIYDHVHNWVRRVDTRS, 0.223 ± 0.18; under YCFMVRFRYGPLREMTNCSK, -0.34 ± 0.62.
Under DSNRMNVNRTPDGVLGGCGT stands 0.468 ± 0.38.
Under AMVLFDGNVLWIHDRSCRRI stands 0.862 ± 0.53; under WCVRELLE, -0.077 ± 0.39.
LTVDCQDSLLYWHRMMSRPL displayed an amyloid nucleation score of 0.853 ± 0.31.
Under PRSSAVYIRTLRVSQKVDPM stands 2.64 ± 0.11.
Under KYLRVDMVNMNAYKGHWEGS stands 0.526 ± 0.66; under SMSCTTSASYHYLIS, 0.697 ± 0.47.
Turning to DFGKIGEWDWAGGVYLSAWR, the amyloid nucleation score is -0.137 ± 1.1.
For ICRGPQSSNCMEAFVQHFTK the value was 0.417 ± 0.42.
For SVKQLTPD the value was -0.319 ± 0.6; for MHRSCGEIACTKKVAIEMKD, 1.34 ± 0.18; for RLSNELKRMVYSDQVQGYSR, -0.357 ± 0.48.
The substance LQDYCACNGVSCCIVYCKSF showed an amyloid nucleation score of 8.693 ± 0.053.
Under LGPGLDLSIINYEWIIF stands -0.202 ± 0.79.
In turn, RSMFDWYKCILHDLISLQSR had an amyloid nucleation score of 0.769 ± 0.47.
For NGSSKIERDQRRWGQKAVDT the value was 2.83 ± 0.089.
For LNFFNDR the value was “inactive”; for RLLLCLRLSY, 2.7 ± 0.12.
Under ASVILTEPFMQGFSIYVGAG stands -0.746 ± 0.49; under RFLLVRSCQAISNRGNGLRE, 5.08 ± 0.042; under PSGPSHIYGWYDSFHNCSYN, -0.369 ± 0.49.
Regarding WVSVRKRHWTTHWLGVGVPN, the amyloid nucleation score came out at 0.611 ± 0.66.
Under FLGDWKTCKVTGACKLCYGG stands -0.018 ± 0.42.
Under LFGVSMSKADMSFWQDSGTR stands 4.77 ± 0.092; under VADHVCFVCRHTLDP, -0.317 ± 0.62; under ALFQECYPGMGNYQGSVATT, 1.09 ± 0.35.
For TGCMSMLFKCAGMCQWWSGG the value was 6.71 ± 0.086; for GCVGAVRRLEGSIVYEDRTL, 0.944 ± 0.25; for PWLDIFNVACTSRGSLVWYE, -0.855 ± 1.1.
As for SAKNMFDMYNCLDTLVVSWD, the amyloid nucleation score was -0.095 ± 0.46.
For NYLYHLPYLRTSVLRRLRPV the value was 0.426 ± 0.3; for YGLLHQFRSCKRI, -0.682 ± 0.29.
On to EMYKQVRFVVIGIIC, for which the amyloid nucleation score was 1.21 ± 0.24.
The substance IYWSLMDWLEV gave an amyloid nucleation score of 1.22 ± 0.44.
Under SFYWKMVW stands 0.512 ± 0.33; under RPRAWI, 0.428 ± 0.44; under LAWITKSMFLL, 0.672 ± 0.56.
In turn, LSNAYRTGFPLICSLNNHRH yielded an amyloid nucleation score of 1.03 ± 0.68.
Substance VRCLVRYYAVR displayed an amyloid nucleation score of -0.649 ± 0.79.
For LQCIGNYSDWGSMVGREQSK the value was -0.066 ± 1; for GCGFFDFSVSWL, -1.24 ± 0.78; for NVIRHLPPSYWRSLHSQMFP, “inactive”.
For RIQSSFFHCC the value was 7.825 ± 0.036; for VLSSRSEDTGQACEVIICVV, 0.693 ± 0.34.
Under GGLTIAKFCESMVLLRFSRT stands 0.399 ± 0.32; under MYISKVFDALLLLRREPRHR, “inactive”.
Substance LCCGLFFFVRVY showed an amyloid nucleation score of 2.06 ± 0.091.
Under RADTRFVAMGFGCRNVKPAV stands -0.296 ± 0.54; under SSGSRRLWSLRSRIAQRNMQ, 2.83 ± 0.17; under FTLLVYIFLYMMLIGNSFFM, “inactive”.
For CKTLVSGGL the value was -0.344 ± 0.41.
As for RTSTYLCMAVNKGVFVSNSV, the amyloid nucleation score is -0.576 ± 0.64.
Regarding YDYNCRDVWIWHA, the amyloid nucleation score was -0.184 ± 0.63.
For YWSMSVMVNMKFPCGNCWVR the value was 2.24 ± 0.11.
Under DPNLGLSTW stands 0.47 ± 0.34.
For VSCCCFFGLTLAVLGHSEVS the value was 3.55 ± 0.12; for VISYMFRSTGVFNT, 2.73 ± 0.19.
Substance YYPGL displayed an amyloid nucleation score of -1.45 ± 1.1.
In turn, RCSDRKRRFSYSNWYGHGYG came in with an amyloid nucleation score of -0.448 ± 0.48.
Under TLHFKFMVIRRN stands -0.254 ± 0.63; under MLECVSALGKLGWFIQPVCL, -0.32 ± 0.55.
Under CCISMDVLWRLSEQP stands 6.385 ± 0.05; under CFGFYGAIVD, 0.023 ± 0.39.
Substance GYDVERDNFDCVVTKDELFW had an amyloid nucleation score of -0.427 ± 0.21.
For GNLLVGAKSMVLSRFIGLYR the value was 2.16 ± 0.23.
For YNSMSVSILNVYYDQPWSLS the value was 8.768 ± 0.049.
With SVNWEDKDLGVGSNLEIASL, the amyloid nucleation score is -0.889 ± 1.
For SDFVEKLLWFSY the value was 0.039 ± 0.77; for FVQSNYDSSF, “inactive”; for GYIGGVSWNISVVVCSS, 2.71 ± 0.11.
Take LAGLALITIIDIFGDNGRMI: the amyloid nucleation score came out at 3.2 ± 0.082.
For TMWYIGKITRPSLRAGSGFT the value was -1.16 ± 0.48; for GNLLKREFAIVFFSVYKQEA, -0.27 ± 0.76; for KDLRWVLRWC, 0.912 ± 0.26.
The substance ESFAFELTVLHIS yielded an amyloid nucleation score of 1.11 ± 0.38.
In the case of IKVYESYVRT, the amyloid nucleation score was -0.812 ± 0.39.
Under FLIEFLWSMSACSAPVFLVF stands -1.41 ± 1.1; under SGYFFPRL, -0.73 ± 1.1.
For SAFSFAIVIYFRLCKVGLVD the value was -0.92 ± 1.1; for NSSVW, -1.01 ± 0.48.
In the case of DNVMLYKRKKQRPIMVPWSA, the amyloid nucleation score was -0.488 ± 0.35.
FRLLWCMFSL showed an amyloid nucleation score of 0.571 ± 0.13.
Under HWMAFVKRTANFDVIDWSAG stands -0.278 ± 0.39; under HSHVRLWSLRFDAHPNWHDK, 1.15 ± 0.27.
For GFRDMGDHIDVREKFSWADA the value was “inactive”.
Under CTCLWNDMRRGP stands 1.99 ± 0.25; under LEHQSRSFMNFYTRPNKPLE, -0.519 ± 1.
GRVRKSHTVGSACNILYSCA showed an amyloid nucleation score of 1.32 ± 0.29.
Under VYIYSGFVVSWLRFFGVMRP stands -0.394 ± 1.1; under NYGSSRLAPVHNT, 3.17 ± 0.12; under QYVLLTLCVRIIHGSND, “inactive”.
As for CESHVSRWYSVS, the amyloid nucleation score was 0.505 ± 0.27.
Under FYCCIITYLDMA stands 6.667 ± 0.026.
For SEFRHGSYYSGVTEVRFWVQ the value was 2.26 ± 0.11.
With TYVCDNTESYTCLWLL, the amyloid nucleation score stood at 7.791 ± 0.038.

Source of the values: the supplement of paper PMC12042874.
